Laboratory results as given in patent publication US20230181772A1 (CITY OF HOPE, published 2023).

T1: recombinant human PSCA-mouseFc fusion protein (human, UniProt O43653 12-83, limits assumed)
T1 construct: also called hPSCA-mFc; Recombinant human PSCA mouse Fc fusion protein (UCLA); not shown: mouse Fc
T1 sequence: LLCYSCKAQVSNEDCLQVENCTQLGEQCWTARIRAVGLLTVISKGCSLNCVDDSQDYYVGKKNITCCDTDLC

T2: human prostate stem cell antigen (PSCA) on the cell surface (human, UniProt O43653 12-83)
T2 construct: Expressed on transduced cell lines (22Rv1-hPSCA, RM9-hPSCA, KPC-hPSCA) or endogenously on Capan-1; also called hPSCA; 22Rv1-PSCA
T2 sequence: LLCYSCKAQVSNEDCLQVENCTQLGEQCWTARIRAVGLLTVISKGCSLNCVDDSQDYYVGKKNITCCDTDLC


Assays:
[1] = target: T1, recombinant human PSCA-mouseFc fusion …; assay: saturation binding ELISA on immobilized hPSCA-mFc (1 ug/mL), half-maximal binding, one-site specific binding fit, 3 experiments
Procedure: Western Blot was also used to test antigen specificity. Recombinant human PSCA mouse Fc fusion protein (UCLA) was blotted and anti-PSCA scFv-Fc variants were tested for binding. Specificity and affinity of antigen binding was further evaluated by performing saturation binding on immobilized antigen in ELISA. Specific binding was fitted using the “one site-specific binding” equation to determine the Kd (ligand concentration that binds half the antigen sites at equilibrium) and Bmax (maximum number of binding sites).
Saturation binding of the anti-PSCA scFv-Fc fragments was tested in ELISA in 3 independent experiments with duplicates. Binding of serial dilutions (1 μM-[…]) of A2scFv-Fc2 and A2scFv-Fc2DM to immobilized recombinant hPSCA-m Fc (1 μg/mL) was specific and dose-dependent (FIG. 6).

[2] = target: T2, human prostate stem cell antigen (PSCA) …; assay: flow cytometry titration on PSCA-expressing cells, apparent on-cell affinity (half-maximal binding)
Procedure: The capability of the anti-PSCA antibody fragments to bind to PSCA expressed on the cell surface was analyzed by flow cytometry. Antigen specificity was confirmed using PSCA-positive and negative cell lines. In this assay binding was only seen with 22Rv1-PSCA cells but not with 22Rv1 (FIG. 9A). […] Binding to murine cell lines transduced to express human PSCA and the human pancreatic cancer cell line Capan-1 was also confirmed using the A2scFv-Fc2 (FIG. 9C).

BSA = target: T3, BSA (UniProt P02769 25-607); assay: ELISA, control wells blocked with BSA
T3 construct: Negative control coating in the ELISA; also called BSA coated wells
Procedure: For further confirmation of specific antigen binding ELISA was used to detect binding of A2scFv-Fc2 and A2scFv-Fc2DM to immobilized antigen hPSCA-mFc (FIG. 5). Different concentrations of hPSCA-mFc were coated (1, 3 and 5 μg/mL in PBS, 100 μL/well) overnight, control wells were blocked with BSA. Presence of immobilized antigen was detected using goat anti-mouseFc-AP. […] No nonspecific binding to BSA coated wells was detected.

T3 sequence (P02769 25-607 limits assumed): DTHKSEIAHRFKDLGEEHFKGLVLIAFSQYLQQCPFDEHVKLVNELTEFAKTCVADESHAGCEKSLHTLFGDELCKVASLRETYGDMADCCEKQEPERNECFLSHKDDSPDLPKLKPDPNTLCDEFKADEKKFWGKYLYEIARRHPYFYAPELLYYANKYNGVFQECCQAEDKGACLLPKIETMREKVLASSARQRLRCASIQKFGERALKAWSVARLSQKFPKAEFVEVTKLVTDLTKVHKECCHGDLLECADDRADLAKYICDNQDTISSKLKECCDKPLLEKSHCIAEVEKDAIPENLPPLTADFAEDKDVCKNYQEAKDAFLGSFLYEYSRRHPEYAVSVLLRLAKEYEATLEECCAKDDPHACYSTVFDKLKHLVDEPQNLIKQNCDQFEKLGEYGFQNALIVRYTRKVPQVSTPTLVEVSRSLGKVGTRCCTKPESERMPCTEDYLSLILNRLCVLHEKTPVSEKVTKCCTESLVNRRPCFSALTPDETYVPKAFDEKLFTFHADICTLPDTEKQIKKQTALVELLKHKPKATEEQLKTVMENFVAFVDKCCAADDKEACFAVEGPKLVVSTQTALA

| Kd [1] [pM] | Kd [2] [pM] | binding result (BSA) | Binder |
| --- | --- | --- | --- |
| 500 | 1200 | no binding | A2scFv-Fc2 (Fc fusion, Homodimer of two scFv-Fc peptides: anti-PSCA A2 VH-VL scFv with a (G4S)2-GGSAQ linker, truncated human IgG2 hinge and Fc; Made in FreeStyle 293-F cells, glycosylated at Asn-297; also called anti-PSCA scFv-Fc2) EVQLVESGGGLVQPGGSLRLSCAASGFNIKDYYIHWVRQAPGKGLEWVAWIDPEYGDSEFVPKFQGRATMSADTSKNTAYLQMNSLRAEDTAVYYCKTGGFWGRGTLVTVSSGGGGSGGGGSGGSAQDIQLTQSPSSLSASVGDRVTITCSASSSVRFIHWYQQKPGKAPKRLIYDTSKLASGVPSRFSGSGSGTDFTLTISSLQPEDFATYYCQQWGSSPFTFGQGTKVEIKVECPPCPAPPVAGPSVFLFPPKPKDTLMISRTPEVTCVVVDVSHEDPEVQFNWYVDGMEVHNAKTKPREEQFNSTFRVVSVLTVVHQDWLNGKEYKCKVSNKGLPAPIEKTISKTKGQPREPQVYTLPPSREEMTKNQVSLTCLVKGFYPSDIAVEWESNGQPENNYKTTPPMLDSDGSFFLYSKLTVDKSRWQQGNVFSCSVMHEALHNHYTQKSLSLSPGK |
| 800 | 650 | no binding | A2scFv-Fc2DM (Fc fusion, Homodimer; also called A2scFv-FcDM; double mutant) EVQLVESGGGLVQPGGSLRLSCAASGFNIKDYYIHWVRQAPGKGLEWVAWIDPEYGDSEFVPKFQGRATMSADTSKNTAYLQMNSLRAEDTAVYYCKTGGFWGRGTLVTVSSGGGGSGGGGSGGSAQDIQLTQSPSSLSASVGDRVTITCSASSSVRFIHWYQQKPGKAPKRLIYDTSKLASGVPSRFSGSGSGTDFTLTISSLQPEDFATYYCQQWGSSPFTFGQGTKVEIKVECPPCPAPPVAGPSVFLFPPKPKDTLMISRTPEVTCVVVDVSHEDPEVQFNWYVDGMEVHNAKTKPREEQFNSTFRVVSVLTVVAQDWLNGKEYKCKVSNKGLPAPIEKTISKTKGQPREPQVYTLPPSREEMTKNQVSLTCLVKGFYPSDIAVEWESNGQPENNYKTTPPMLDSDGSFFLYSKLTVDKSRWQQGNVFSCSVMHEALHNQYTQKSLSLSPGK |
